Measured values published in US20240132485A1, “HETEROCYCLIC CULLIN RING UBIQUITIN LIGASE COMPOUNDS AND USES THEREOF” (CEMM - FORSCHUNGSZENTRUM FÜR MOLEKULARE MEDIZIN GMBH, priority 2020, published 2024).

Experiments:
[1] = target: Nanoluc_DDB1 (N-terminal Nanoluc luciferase, G4S linker, DDB1 (FL)) (UniProt Q16531); assay: NanoBRET in HEK293T cells, 10-point titration of compound Example 3-43; class A = EC50<=0.25 µM
[2] = target: Nanoluc_DDB1 (N-terminal Nanoluc luciferase, G4S linker, DDB1 (FL)) (UniProt Q16531); assay: NanoBRET in HEK293T cells, 10 µM compound Example 3-3; class D = 1-2 fold increase
[3] = target: Nanoluc_DDB1 (N-terminal Nanoluc luciferase, G4S linker, DDB1 (FL)) (UniProt Q16531); assay: NanoBRET in HEK293T cells, 10 µM compound Example 3-41; class C = 2-3 fold increase
[4] = target: Nanoluc_DDB1 (N-terminal Nanoluc luciferase, G4S linker, DDB1 (FL)) (UniProt Q16531); assay: NanoBRET in HEK293T cells, 10 µM compound Example 3-34; class C = 2-3 fold increase
[5] = target: Nanoluc_DDB1 (N-terminal Nanoluc luciferase, G4S linker, DDB1 (FL)) (UniProt Q16531); assay: NanoBRET in HEK293T cells, 10 µM compound Example 3-57; class B = 3-4 fold increase
[6] = target: Nanoluc_DDB1 (N-terminal Nanoluc luciferase, G4S linker, DDB1 (FL)) (UniProt Q16531); assay: NanoBRET in HEK293T cells, 10 µM compound Example 3-50; class A = greater than 4-fold increase
[7] = target: Nanoluc_DDB1 (N-terminal Nanoluc luciferase, G4S linker, DDB1 (FL)) (UniProt Q16531); assay: NanoBRET in HEK293T cells, 10 µM compound Example 3-49; class B = 3-4 fold increase
[8] = target: Nanoluc_DDB1 (N-terminal Nanoluc luciferase, G4S linker, DDB1 (FL)) (UniProt Q16531); assay: NanoBRET in HEK293T cells, 10 µM compound Example 3-24; class B = 3-4 fold increase
[9] = target: Nanoluc_DDB1 (N-terminal Nanoluc luciferase, G4S linker, DDB1 (FL)) (UniProt Q16531); assay: NanoBRET in HEK293T cells, 10-point titration of compound Example 3-64; class E = >10 µM
[10] = target: Nanoluc_DDB1 (N-terminal Nanoluc luciferase, G4S linker, DDB1 (FL)) (UniProt Q16531); assay: NanoBRET in HEK293T cells, 10 µM compound Example 3-47; class A = greater than 4-fold increase
[11] = target: Nanoluc_DDB1 (N-terminal Nanoluc luciferase, G4S linker, DDB1 (FL)) (UniProt Q16531); assay: NanoBRET in HEK293T cells, 10 µM compound Example 3-58; class C = 2-3 fold increase
[12] = target: Nanoluc_DDB1 (N-terminal Nanoluc luciferase, G4S linker, DDB1 (FL)) (UniProt Q16531); assay: NanoBRET in HEK293T cells, 10 µM compound Example 3-53; class B = 3-4 fold increase
[13] = target: Nanoluc_DDB1 (N-terminal Nanoluc luciferase, G4S linker, DDB1 (FL)) (UniProt Q16531); assay: NanoBRET in HEK293T cells, 10 µM compound Example 3-9; class A = greater than 4-fold increase
[14] = target: Nanoluc_DDB1 (N-terminal Nanoluc luciferase, G4S linker, DDB1 (FL)) (UniProt Q16531); assay: NanoBRET in HEK293T cells, 10-point titration of compound Example 3-66; class A = EC50<=0.25 µM
[15] = target: Nanoluc_DDB1 (N-terminal Nanoluc luciferase, G4S linker, DDB1 (FL)) (UniProt Q16531); assay: NanoBRET in HEK293T cells, 10-point titration of compound Example 3-22; class E = >10 µM
[16] = target: Nanoluc_DDB1 (N-terminal Nanoluc luciferase, G4S linker, DDB1 (FL)) (UniProt Q16531); assay: NanoBRET in HEK293T cells, 10 µM compound Example 3-8; class A = greater than 4-fold increase
[17] = target: Nanoluc_DDB1 (N-terminal Nanoluc luciferase, G4S linker, DDB1 (FL)) (UniProt Q16531); assay: NanoBRET in HEK293T cells, 10-point titration of compound Example 3-1; class A = EC50<=0.25 µM
[18] = target: Nanoluc_DDB1 (N-terminal Nanoluc luciferase, G4S linker, DDB1 (FL)) (UniProt Q16531); assay: NanoBRET in HEK293T cells, 10 µM compound Example 3-32; class B = 3-4 fold increase
[19] = target: Nanoluc_DDB1 (N-terminal Nanoluc luciferase, G4S linker, DDB1 (FL)) (UniProt Q16531); assay: NanoBRET in HEK293T cells, 10 µM compound Example 3-2; class B = 3-4 fold increase
[20] = target: Nanoluc_DDB1 (N-terminal Nanoluc luciferase, G4S linker, DDB1 (FL)) (UniProt Q16531); assay: NanoBRET in HEK293T cells, 10 µM compound Example 3-60; class C = 2-3 fold increase
[21] = target: Nanoluc_DDB1 (N-terminal Nanoluc luciferase, G4S linker, DDB1 (FL)) (UniProt Q16531); assay: NanoBRET in HEK293T cells, 10 µM compound Example 3-37; class C = 2-3 fold increase
[22] = target: Nanoluc_DDB1 (N-terminal Nanoluc luciferase, G4S linker, DDB1 (FL)) (UniProt Q16531); assay: NanoBRET in HEK293T cells, 10 µM compound Example 3-56; class C = 2-3 fold increase
[23] = target: Nanoluc_DDB1 (N-terminal Nanoluc luciferase, G4S linker, DDB1 (FL)) (UniProt Q16531); assay: NanoBRET in HEK293T cells, 10 µM compound Example 3-13; class B = 3-4 fold increase
[24] = target: Nanoluc_DDB1 (N-terminal Nanoluc luciferase, G4S linker, DDB1 (FL)) (UniProt Q16531); assay: NanoBRET in HEK293T cells, 10 µM compound Example 3-21; class B = 3-4 fold increase
[25] = target: Nanoluc_DDB1 (N-terminal Nanoluc luciferase, G4S linker, DDB1 (FL)) (UniProt Q16531); assay: NanoBRET in HEK293T cells, 10 µM compound Example 3-33; class A = greater than 4-fold increase
[26] = target: Nanoluc_DDB1 (N-terminal Nanoluc luciferase, G4S linker, DDB1 (FL)) (UniProt Q16531); assay: NanoBRET in HEK293T cells, 10-point titration of compound Example 3-9; class A = EC50<=0.25 µM

Chain of Nanoluc_DDB1 (N-terminal Nanoluc luciferase, G4S linker, DDB1 (FL)) (Q16531 other isoform, or with tags, fused parts or gaps): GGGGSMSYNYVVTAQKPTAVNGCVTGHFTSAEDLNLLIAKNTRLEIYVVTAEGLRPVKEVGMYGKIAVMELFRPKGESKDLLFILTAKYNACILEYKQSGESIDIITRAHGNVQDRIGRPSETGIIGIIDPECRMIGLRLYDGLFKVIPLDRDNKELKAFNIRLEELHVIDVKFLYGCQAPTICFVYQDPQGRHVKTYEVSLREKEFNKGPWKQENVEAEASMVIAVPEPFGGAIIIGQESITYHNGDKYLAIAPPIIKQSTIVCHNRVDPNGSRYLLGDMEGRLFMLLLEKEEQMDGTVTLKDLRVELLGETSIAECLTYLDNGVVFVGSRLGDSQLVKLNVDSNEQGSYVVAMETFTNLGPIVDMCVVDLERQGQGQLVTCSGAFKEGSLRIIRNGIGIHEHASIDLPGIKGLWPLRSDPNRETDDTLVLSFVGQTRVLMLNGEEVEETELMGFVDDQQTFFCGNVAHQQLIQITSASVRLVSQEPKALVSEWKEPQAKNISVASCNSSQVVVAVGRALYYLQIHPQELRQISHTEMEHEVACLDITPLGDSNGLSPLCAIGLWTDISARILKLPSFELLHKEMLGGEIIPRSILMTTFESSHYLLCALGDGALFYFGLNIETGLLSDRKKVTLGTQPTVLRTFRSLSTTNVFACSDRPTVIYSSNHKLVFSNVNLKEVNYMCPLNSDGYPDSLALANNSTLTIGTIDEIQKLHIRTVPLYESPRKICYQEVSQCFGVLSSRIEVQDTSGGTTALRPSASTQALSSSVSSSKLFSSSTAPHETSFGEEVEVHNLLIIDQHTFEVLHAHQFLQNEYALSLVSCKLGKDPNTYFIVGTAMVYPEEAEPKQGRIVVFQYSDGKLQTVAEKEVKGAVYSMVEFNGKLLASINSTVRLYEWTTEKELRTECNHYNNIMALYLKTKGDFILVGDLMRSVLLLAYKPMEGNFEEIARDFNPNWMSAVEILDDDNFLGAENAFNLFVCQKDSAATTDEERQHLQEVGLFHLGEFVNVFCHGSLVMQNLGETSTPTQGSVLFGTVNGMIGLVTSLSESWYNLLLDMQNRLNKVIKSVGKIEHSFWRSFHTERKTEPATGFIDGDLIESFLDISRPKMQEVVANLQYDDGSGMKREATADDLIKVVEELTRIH

Work on “HaloTag_CDK12 (N-terminal HaloTag, G4S linker, CDK12 (713-1052)) (from UniProt Q9NYV4 713-1052) (enzyme)” yielded an EC50 [1] of less than 250 nM, a NanoBRET fold increase [2] of 1 to 2 fold and a NanoBRET fold increase [3] of 2 to 3 fold. For the same substance, the NanoBRET fold increase [4] was 2 to 3 fold, the NanoBRET fold increase [5] was 3 to 4 fold and the NanoBRET fold increase [6] was greater than 4 fold. For the same substance, the NanoBRET fold increase [7] was 3 to 4 fold, the NanoBRET fold increase [8] was 3 to 4 fold and the EC50 [9] was greater than 10000 nM. For the same substance, the NanoBRET fold increase [10] was greater than 4 fold, the NanoBRET fold increase [11] was 2 to 3 fold and the NanoBRET fold increase [12] was 3 to 4 fold. For the same substance, the NanoBRET fold increase [13] was greater than 4 fold, the EC50 [14] was less than 250 nM and the EC50 [15] was greater than 10000 nM. It also gave a NanoBRET fold increase [16] greater than 4 fold, an EC50 [17] of less than 250 nM and a NanoBRET fold increase [18] of 3 to 4 fold. The NanoBRET fold increase [19] was 3 to 4 fold, the NanoBRET fold increase [20] was 2 to 3 fold and the NanoBRET fold increase [21] was 2 to 3 fold. It also gave a NanoBRET fold increase [22] of 2 to 3 fold, a NanoBRET fold increase [23] of 3 to 4 fold and a NanoBRET fold increase [24] of 3 to 4 fold. For the same substance, the NanoBRET fold increase [25] was greater than 4 fold and the EC50 [26] was less than 250 nM.
